The results in this text go back to patent US20230338465A1 (VITRUVIAE, published 2023).

What all share (test): ELISA, 2.5 mM CaCl2
For orientation: ELISA stands for enzyme-linked immunosorbent assay.

One experiment has as its target Chikungunya Virus E1 (Chikungunya virus).
The target in experiment [1] is T1, Zika Virus Envelope Protein (Zika virus).
T1 chain: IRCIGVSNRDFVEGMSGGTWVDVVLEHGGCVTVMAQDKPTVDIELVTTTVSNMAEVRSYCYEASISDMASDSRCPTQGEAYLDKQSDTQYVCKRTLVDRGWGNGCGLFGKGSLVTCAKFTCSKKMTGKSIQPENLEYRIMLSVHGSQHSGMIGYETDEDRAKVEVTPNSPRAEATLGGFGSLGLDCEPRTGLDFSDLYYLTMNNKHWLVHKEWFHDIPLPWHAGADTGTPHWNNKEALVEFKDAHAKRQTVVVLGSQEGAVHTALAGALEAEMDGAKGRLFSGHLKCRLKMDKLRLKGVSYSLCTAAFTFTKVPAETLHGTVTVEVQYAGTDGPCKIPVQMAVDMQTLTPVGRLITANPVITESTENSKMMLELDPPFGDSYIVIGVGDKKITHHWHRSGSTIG

Experiment [2] deals with T1, Zika Virus Envelope Protein.

Several values for one entry are separate records, joined by “and”; a condition that tells them apart may be missing. Equal values may be shown once. Read-outs that look alike come from different tables or passages of the source.

B1: VP025-CT (co-transfected product of genes TM-G4-A-DC and CT-G4-B-DC, heterodimer mixture) (Fc fusion)
chain 1: SVKVGGEAGPSVTLPCHYSGAVTSMCWNRGSCSLFTCQNGIVWTNGTHVTYRKDTRYKLLGDLSRRDVSLTIENTAVSDSGVYCCRVEHRGWFNDMKITVSLEIVGGGGSGGGGSGGGGSKYGPPCPPCPAPEAAGGPSVFLFPPKPKDTLMISRTPEVTCVVVDVSQEDPEVQFNWYVDGVEVHNAKTKPREEQFNSTYRVVSVLTVLHQDWLNGKEYKCAVSNKGLPSSIEKTISKCKGQPREPQVYTLPPSQEEMTKNQVSLTCLVKGFYPSDIAVEWESNGQPENNYKTTPPVLDSDGSFFLYSRLTVDKSRWQEGNVFSCSVMHEALHNHYTQKSLSLSLGK
chain 2: ERLCHPCPWEWTFFQGNCYFMSNSQRNWHDSITACKEVGAQLVVIKSAEEQNFLQLQSSRSNRFTWMGLSDLNQEGTWQWVDGSPLLPSFKQYWNRGEPNNVGEEDCAEFSGNGWNDDKCNLAKFWICKKSAASCSGGGGSGGGGSGGGGSKYGPPCPPCPAPEAAGGPSVFLFPPKPKDTLMISRTPEVTCVVVDVSQEDPEVQFNWYVDGVEVHNAKTKPREEQFNSTYRVVSVLTVLHQDWLNGKEYKCAVSNKGLPSSIEKTISKCKGQPREPQVYTLPPSQEEMTKNQVSLTCLVKGFYPSDIAVEWESNGQPENNYKTTPPVLDSDGSFLLYSKLTVDKSRWQEGNVFSCSVMHEALHNHYTQKSLSLSLGK
notes: also called VP025-CT (heterodimer mixture)
In general, EC50 refers to the midpoint of the concentration-response curve. High values mean a need for much substance, low ones an effect from little substance. Consider B1, for which, in the experiment with Chikungunya Virus E1, the EC50 is 10.2 µg/mL and 122 nM.

B2: VP019-F2 (multimer fraction F2 of VP019, V-TIM1-1 with V-IGG4-ADC-A-Fc) (Fc fusion)
chain: B1 chain 1
notes: also called TM-G4-A-DC; VIT-307
Take B2: the EC50 in experiment [1] was 12.2 nM; in experiment [2], 1 µg/mL.

B3: VP020 (V-CTLD-1 with V-IGG4-ADC-B-Fc) (Fc fusion)
chain: B1 chain 2
notes: also called CT-G4-B-DC; VIT-308
For B3, the EC50 in experiment [1] came to 85.1 nM; in experiment [2] it was 7.4 µg/mL.
